Experimental data from article PMC9318647, “Human and Bacterial Toll-Interleukin Receptor Domains Exhibit Distinct Dynamic Features and Functions” (Molecules, 2022).

B2: human TLR1 TIR domain (TLR1-TIR), residues 625-786, untagged (domain or fragment, UniProt Q15399 625-786, looked up)
chain: NIPLEELQRNLQFHAFISYSGHDSFWVKNELLPNLEKEGMQICLHERNFVPGKSIVENIITCIEKSYKSIFVLSPNFVQSEWCHYELYFAHHNLFHEGSNSLILILLEPIPQYSIPSSYHKLKSLMARRTYLEWPKEKSKRGLFWANLRAAINIKLTEQAKK
notes: human TLR1, NCBI NP_003254.2, the entire intracellular TIR region of residues 625-786; Elutes as distinct dimer and monomer peaks on Superose-12; also called untagged TLR1-TIR

Key:
[1] = molecular target: Acinetobacter junii TIR protein (tirA), full length (Acinetobacter junii); assay: SEC; analytical sizing of the full-length bacterial TIR-containing proteins, their CC domains and TIR constructs; sample loads 200 μM, except tirS-TIR E216A 20 μM and tirA-TIR E206A 50 μM
[2] = molecular target: Enterococcus TIR protein (tirE), full length (Enterococcus); assay: as above
[3] = molecular target: tirA coil-coil (CC) domain (Acinetobacter junii); assay: as above
[4] = molecular target: tirE coil-coil (CC) domain (Enterococcus); assay: as above
[5] = molecular target: tirS coil-coil (CC) domain (Staphylococcus aureus); assay: as above
[6] = molecular target: the molecule itself; assay: as above
[7] = molecular target: the molecule itself; assay: SEC; analytical Superose-12; 50 mM Na2HPO4, pH 6.5, 150 mM NaCl, 1 mM DTT; TLR1-TIR and TLR2-TIR also after 30 min in 50 mM DTT (homodimers minimized)
[8] = molecular target: B2; assay: NMR titration; 15N-TLR2-TIR at 308 μM, unlabeled partner added (TLR1-TIR 308, 616, 924 μM; full-length tirA 308 μM); 15N-HSQC; global fit of several resonances; conditions: both partners purified
[9] = molecular target: human TLR2 TIR domain (TLR2-TIR), residues 633-784, untagged (human) (UniProt O60603); assay: SEC; analytical Superose-12; 50 mM Na2HPO4, pH 6.5, 150 mM NaCl, 1 mM DTT; TLR1-TIR and TLR2-TIR also after 30 min in 50 mM DTT (homodimers minimized)

For “Acinetobacter junii TIR protein (tirA), full length (natural protein)”, the stoichiometry N [1] was 2.

Work on “Enterococcus TIR protein (tirE), full length (natural protein)” yielded a stoichiometry N [2] of 2.

“tirA coil-coil (CC) domain (domain or fragment)” gave a stoichiometry N [3] of 2.

“tirE coil-coil (CC) domain (domain or fragment)” showed a stoichiometry N [4] of 2.

“tirS coil-coil (CC) domain (domain or fragment)” gave a stoichiometry N [5] of 2.

B1: Staphylococcus aureus TIR protein (tirS), full length (natural protein)
chain: MSVLETKLKSQMSKSAKIARNMNKLPDEIDRLRKRIERINKKRKPTSSNIRDLEKSNKQLVTKQQKLADLQVEYTKIEKKINETKINLQKEQSRNQKKLSSMLDKNTKGNEEIMEKLLTNSDQINEISNQIKKAVNQKEIIEYDVFLSHSSLDKEDYVSKISEKLIEKGLKVFEDVKVFEIGKSQTETMNMGILNSRFVVVFLSPNFIESGWSRYEFLSFLNREINEEHVIILPIWHKVSVEDVRAYNPYLVDKYALNTSDFSIEEIVEKIYQVIVNSKN
notes: Staphylococcus aureus TIR protein (tirS), NCBI WP_000114516.1, full length (CC domain and TIR domain); also called full-length tirS
With B1 the “stoichiometry N” value [6] was 2.

B2 was tested, and the “stoichiometry N” value [7] was 2.

B3: human TLR2 TIR domain (TLR2-TIR), residues 633-784, untagged (domain or fragment, UniProt O60603 633-784, looked up)
chain: KAPSRNICYDAFVSYSERDAYWVENLMVQELENFNPPFKLCLHKRDFIPGKWIIDNIIDSIEKSHKTVFVLSENFVKSEWCKYELDFSHFRLFDENNDAAILILLEPIEKKAIPQRFCKLRKIMNTKTYLEWPMDEAQREGFWVNLRAAIKS
notes: human TLR2, NCBI NP_001305716.1, the entire intracellular TIR region of residues 633-784; 15N-labelled in the NMR experiments; Elutes as distinct dimer and monomer peaks on Superose-12; also called 15N-TLR2-TIR
B3 gave a Kd [8] of 760 ± 230 µM and a stoichiometry N [9] of 2.
